The text below walks through data of patent publication US20190367607A1 (DUKE UNIVERSITY, published 2019).

B1: HB22-103 (antibody, V domains shown)
VH: QVQLQQPGTELVKPGASVKLSCKASGYTFTSYWMHWVKQRPGQGLEWIGMIHPNRGTTNYNEKFKSKATLTVDKSSSTAYMQLSSLTSEDSAVYYCARYYDYDPDYWGQGTTLTVSS
VL: DIVLTQSPATLSVTPGDSVSLSCRASQSISNNLHWFQQKSHESPRLLIKYGYQSISGIPSRFSGSGSGTDFTLSINSVETEDFGMYFCQQSYRWPYTFGGGTKLEIK
notes: also called HB22-103 mAb; HB22 mAb
B2: HB22-115 (antibody, V domains shown)
VH: QVQLQQPGAELVKPGASVKLSCKASGYTFTSYWMHWVKQRPGQGLEWIGMIHPNSGSTNYSEKFKSKATLTVDKSSSTAYMQLSSLTSEDSAVYYCARYYDYDPDYWGQGTTLTVSS
VL: DIVLTQSPATLSVTPGDSVTLSCRASQGISNNLHWYQQQSHESPRLLIKFTSQSVSGIPSRFSGSGSGTDFTLSVNSVETEDFGMYFCQQSNRWPYTFGGGTKLEIK
notes: Mouse IgG1 monoclonal antibody to human CD22; also called HB22-115 mAb; HB22 mAb
B3: HB22-107 (antibody, V domains shown)
VH: DVKLVESGEGLVKPGGSLKLSCAASGFTFSSYAMSWVRQTPEKRLEWVAYITSGGDYIYYADTVKGRFTISRDDARNTLYLQMSSLKSEDTAMYYCTRDQGYYYDGRPTWFAYWGQGTLVTVSA
VL: DIVMIQSPSSLAMSVGQKVTMRCKSSQSLLSSSNQKNYLAWYQQKPGQSPKLLVYFASTRESGVPDRFIGSGSGTDFTLTINSVQAEDLADYFCQQHYSTPLTFGAGTKLELK
notes: Mouse IgG1 monoclonal antibody to human CD22; also called HB22-107 mAb; HB22 mAb

The experiment deals with T1, human CD22 on B cells of hCD22-Tg+/+ mCD22-/- transgenic mice (human, UniProt P20273 20-847).
T1 construct: whole, on cells; Expressed from the human CD22 gene with its endogenous regulatory elements
Briefly: flow cytometry of blood B220+ B cells from hCD22-Tg mice 7 days after mAb injection, stained with anti-mouse IgG1. On the procedure:
FIGS. 20A-20B are a set of histograms and scatter plots showing B10 cell-depleting mAbs in hCD22-Tg mice bind B220⁺B cells. Blood lymphocytes isolated from hCD22-Tg mice given either HB22-103, HB22-107, HB22-115 or an isotype-matched (IgG1) mAb (250 μg/mouse) 7 days earlier in FIG. 16 were assessed for relative HB22 mAb binding by immunofluorescence staining with fluorochrome-conjugated anti-mouse IgG1 isotype-specific antibody. […] Bars indicate means, with significant differences between group means indicated: **, p<0.01; ***, p<0.001.
For B1, the binding result is reported as “binds”.
Under B2 stands “binds”; under B3, “binds”.
